Measurements published in FireProtDB (doi:10.1074/jbc.271.51.32729).

B1: Ribonuclease HI, P0A7Y4 (parent)
chain: MLKQVEIFTDGSCLGNPGPGGYGAILRYRGREKTFSAGYTRTTNNRMELMAAIVALEALKEHCEVILSTDSQYVRQGITQWIHNWKKRGWKTADKKPVKNVDLWQRLDAALGQHQIKWEWVKGHAGHPENERCDELARAAAMNPTLEDTGYQVEV

Variants of: B1
Conditions: Escherichia coli (strain K12), Thermal, CD, reversible: yes, structure 2RN2, whole UniProt chain shown
[1] = pH 9, 47 °C, glycine-NaOH 50 mM

Variant	ddG of mutation (higher = less stable) (pH 3, 50 °C, glycine-HCl 10 mM)	Tm (pH 3, glycine-HCl 10 mM)	change of melting temperature, mutant - wild type (higher = more stable) (pH 3, glycine-HCl 10 mM)	unfolding enthalpy (van 't Hoff) (pH 3, glycine-HCl 10 mM)	ddG of mutation (higher = less stable) [1]	Tm (pH 9, glycine-NaOH 50 mM)	change of melting temperature, mutant - wild type (higher = more stable) (pH 9, glycine-NaOH 50 mM)
E48D	-0.2 kcal/mol	50.8 °C	0.8 °C	103 kcal/mol	0.2 kcal/mol	46.2 °C	-0.8 °C
E48Q	0.1 kcal/mol	49.8 °C	-0.2 °C	99.1 kcal/mol	–	48 °C	1 °C
E48A	0.1 kcal/mol	49.8 °C	-0.2 °C	91.6 kcal/mol	0.3 kcal/mol	46 °C	-1 °C
D134A	-0.8 kcal/mol	52.9 °C	2.9 °C	105 kcal/mol	-2 kcal/mol	–	–
D134N	0.1 kcal/mol	49.7 °C	-0.3 °C	110 kcal/mol	-1.8 kcal/mol	53.4 °C	6.4 °C
D70E	-0.5 kcal/mol	51.8 °C	1.8 °C	90.4 kcal/mol	-0.1 kcal/mol	–	–
D70N	0.3 kcal/mol	48.8 °C	-1.2 °C	110 kcal/mol	–	52.5 °C	5.5 °C
D70A	0.1 kcal/mol	49.7 °C	-0.3 °C	85.5 kcal/mol	-1.1 kcal/mol	50.8 °C	3.8 °C
D10E	-1.1 kcal/mol	53.8 °C	3.8 °C	97.7 kcal/mol	-1 kcal/mol	50.4 °C	3.4 °C
D10A	-2.4 kcal/mol	58.1 °C	8.1 °C	105 kcal/mol	–	–	–
D10S	-0.7 kcal/mol	52.4 °C	2.4 °C	121 kcal/mol	-2.7 kcal/mol	56.2 °C	9.2 °C
D10N	0.7 kcal/mol	47.4 °C	-2.6 °C	90.5 kcal/mol	-2 kcal/mol	53.8 °C	6.8 °C
D10H	-0.4 kcal/mol	51.5 °C	1.5 °C	115 kcal/mol	-2.4 kcal/mol	–	–
